Values quoted from earlier work, collected in paper PMC11945212.

Molecular target: Adducin (Homo sapiens) (UniProt P35611)
Sequence of UniProt P35611 (P35611 whole entry, chain 1 of 2): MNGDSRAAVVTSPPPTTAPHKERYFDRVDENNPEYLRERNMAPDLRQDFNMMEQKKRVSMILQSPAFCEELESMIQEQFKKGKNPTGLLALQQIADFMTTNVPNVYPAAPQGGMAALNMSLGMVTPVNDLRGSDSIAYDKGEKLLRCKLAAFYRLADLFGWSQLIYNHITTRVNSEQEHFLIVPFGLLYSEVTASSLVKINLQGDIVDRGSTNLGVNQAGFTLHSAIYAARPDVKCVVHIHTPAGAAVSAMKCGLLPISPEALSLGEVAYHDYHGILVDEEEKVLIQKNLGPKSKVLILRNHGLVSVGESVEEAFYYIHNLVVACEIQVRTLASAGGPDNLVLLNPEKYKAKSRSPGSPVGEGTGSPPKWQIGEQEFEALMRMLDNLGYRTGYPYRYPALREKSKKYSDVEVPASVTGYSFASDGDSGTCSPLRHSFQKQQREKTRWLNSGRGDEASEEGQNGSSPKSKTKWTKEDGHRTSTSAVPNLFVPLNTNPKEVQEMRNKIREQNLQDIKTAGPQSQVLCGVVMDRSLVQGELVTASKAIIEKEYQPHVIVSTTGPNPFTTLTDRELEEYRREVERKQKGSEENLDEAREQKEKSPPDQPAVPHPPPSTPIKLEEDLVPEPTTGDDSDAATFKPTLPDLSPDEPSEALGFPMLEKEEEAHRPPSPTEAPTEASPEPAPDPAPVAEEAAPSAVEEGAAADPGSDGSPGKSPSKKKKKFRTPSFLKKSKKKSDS
Sequence of UniProt P35611 (P35612 whole entry, chain 2 of 2, further chain): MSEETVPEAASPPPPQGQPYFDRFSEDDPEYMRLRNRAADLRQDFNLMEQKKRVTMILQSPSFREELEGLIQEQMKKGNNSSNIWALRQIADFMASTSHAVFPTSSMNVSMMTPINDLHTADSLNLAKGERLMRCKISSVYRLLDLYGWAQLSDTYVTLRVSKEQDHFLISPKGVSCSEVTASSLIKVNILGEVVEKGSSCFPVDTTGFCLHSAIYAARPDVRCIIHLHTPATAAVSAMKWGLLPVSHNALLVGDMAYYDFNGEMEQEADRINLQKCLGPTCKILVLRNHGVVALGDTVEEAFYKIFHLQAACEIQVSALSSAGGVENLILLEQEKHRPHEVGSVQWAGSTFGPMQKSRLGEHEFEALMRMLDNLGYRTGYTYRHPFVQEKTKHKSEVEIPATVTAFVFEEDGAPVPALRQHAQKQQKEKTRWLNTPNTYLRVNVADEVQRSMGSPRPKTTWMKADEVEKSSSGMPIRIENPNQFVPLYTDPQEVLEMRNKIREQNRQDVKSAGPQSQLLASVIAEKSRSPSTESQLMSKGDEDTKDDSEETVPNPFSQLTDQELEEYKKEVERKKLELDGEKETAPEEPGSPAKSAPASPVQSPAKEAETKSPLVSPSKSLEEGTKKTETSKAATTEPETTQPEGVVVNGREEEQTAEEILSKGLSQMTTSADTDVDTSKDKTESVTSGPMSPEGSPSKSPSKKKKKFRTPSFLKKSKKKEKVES

Kd: 100 nM
Substance: Band 3 (from UniProt P02730)
